In patent publication US20230151095A1 (published 2023) one finds Kd data, which are given here for eight molecules.

The chains are these.
T1: XENP23311 (His-tagged NKG2D-Fc) (human, UniProt P26718 78-216)
T1 chain: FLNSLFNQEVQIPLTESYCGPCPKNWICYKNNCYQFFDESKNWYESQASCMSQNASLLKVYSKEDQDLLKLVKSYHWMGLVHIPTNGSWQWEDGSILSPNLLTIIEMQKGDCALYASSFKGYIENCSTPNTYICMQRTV

B1: XENP41334 (LB_1002, 1+1 VLVH) (antibody)
chain 1: EVQLLESGGGLVQPGGSLRLSCAVSGFSLSSYGVIWVRQAPGKGLEYVSWVSSGGSTNYASSVKGRFTISRDTSKNTVYLQMNSLRAEDTAVYFCARGATNSGTDIWGPGTLVTVSSASTKGPSVFPLAPSSKSTSGGTAALGCLVKDYFPEPVTVSWNSGALTSGVHTFPAVLQSSGLYSLSSVVTVPSSSLGTQTYICNVNHKPSDTKVDKKVEPKSCDKTHTCPPCPAPELLGGPSVFLFPPKPKDTLMISRTPEVTCVVVDVSHEDPEVKFNWYVDGVEVHNAKTKPREEEYNSTYRVVSVLTVLHQDWLNGKEYKCKVSNKALPAPIEKTISKAKGQPREPQVYTLPPSREEMTKNQVSLTCDVSGFYPSDIAVEWESDGQPENNYKTTPPVLDSDGSFFLYSKLTVDKSRWEQGDVFSCSVMHEALHNHYTQKSLSLSPGK
chain 2: not shown
chain 3: DIVMTQSPSSLSASVGDRVTITCRASQSINSWLSWYQQKPGKPPKLLIYGASNLASGVPSRFKGSGSGTDFTLTISSLQPEDFATYYCQNNYGIIAAGATFGGGTKVEIKRTVAAPSVFIFPPSDEQLKSGTASVVCLLNNFYPREAKVQWKVDNALQSGNSQESVTEQDSKDSTYSLSSTLTLSKADYEKHKVYACEVTHQGLSSPVTKSFNRGEC
B2: XENP41337 (LB_1001, 2+1 VLVH) (antibody)
chain 1: EVQLLESGGGLVQPGGSLRLSCAVSGFSLSSYGVIWVRQAPGKGLEYVSWVSSGGSTNYASSVKGRFTISRDTSKNTVYLQMNSLRAEDTAVYFCARGATNSGTDIWGPGTLVTVSSASTKGPSVFPLAPSSKSTSGGTAALGCLVKDYFPEPVTVSWNSGALTSGVHTFPAVLQSSGLYSLSSVVTVPSSSLGTQTYICNVNHKPSDTKVDKKVEPKSCDKTHTCPPCPAPELLGGPSVFLFPPKPKDTLMISRTPEVTCVVVDVSHEDPEVKFNWYVDGVEVHNAKTKPREEEYNSTYRVVSVLTVLHQDWLNGKEYKCKVSNKALPAPIEKTISKAKGQPREPQVYTLPPSREEMTKNQVSLTCDVSGFYPSDIAVEWESDGQPENNYKTTPPVLDSDGSFFLYSKLTVDKSRWEQGDVFSCSVMHEALHNHYTQKSLSLSPGK
chain 2: not shown
chain 3: DIVMTQSPSSLSASVGDRVTITCRASQSINSWLSWYQQKPGKPPKLLIYGASNLASGVPSRFKGSGSGTDFTLTISSLQPEDFATYYCQNNYGIIAAGATFGGGTKVEIKRTVAAPSVFIFPPSDEQLKSGTASVVCLLNNFYPREAKVQWKVDNALQSGNSQESVTEQDSKDSTYSLSSTLTLSKADYEKHKVYACEVTHQGLSSPVTKSFNRGEC
B3: XENP40587 (1D2B4, 2+1 VHVL) (antibody)
chain 1: EVQLLESGGGLVQPGGSLRLSCAVSGFSLSSYGVIWVRQAPGKGLEYVSWVSSGGSTNYASSVKGRFTISRDTSKNTVYLQMNSLRAEDTAVYFCARGATNSGTDIWGPGTLVTVSSASTKGPSVFPLAPSSKSTSGGTAALGCLVKDYFPEPVTVSWNSGALTSGVHTFPAVLQSSGLYSLSSVVTVPSSSLGTQTYICNVNHKPSDTKVDKKVEPKSCDKTHTCPPCPAPELLGGPSVFLFPPKPKDTLMISRTPEVTCVVVDVSHEDPEVKFNWYVDGVEVHNAKTKPREEEYNSTYRVVSVLTVLHQDWLNGKEYKCKVSNKALPAPIEKTISKAKGQPREPQVYTLPPSREEMTKNQVSLTCDVSGFYPSDIAVEWESDGQPENNYKTTPPVLDSDGSFFLYSKLTVDKSRWEQGDVFSCSVMHEALHNHYTQKSLSLSPGK
chain 2: not shown
chain 3: DIVMTQSPSSLSASVGDRVTITCRASQSINSWLSWYQQKPGKPPKLLIYGASNLASGVPSRFKGSGSGTDFTLTISSLQPEDFATYYCQNNYGIIAAGATFGGGTKVEIKRTVAAPSVFIFPPSDEQLKSGTASVVCLLNNFYPREAKVQWKVDNALQSGNSQESVTEQDSKDSTYSLSSTLTLSKADYEKHKVYACEVTHQGLSSPVTKSFNRGEC
B4: XENP41340 (1D7B4, 2+1 VLVH) (antibody)
chain 1: EVQLLESGGGLVQPGGSLRLSCAVSGFSLSSYGVIWVRQAPGKGLEYVSWVSSGGSTNYASSVKGRFTISRDTSKNTVYLQMNSLRAEDTAVYFCARGATNSGTDIWGPGTLVTVSSASTKGPSVFPLAPSSKSTSGGTAALGCLVKDYFPEPVTVSWNSGALTSGVHTFPAVLQSSGLYSLSSVVTVPSSSLGTQTYICNVNHKPSDTKVDKKVEPKSCDKTHTCPPCPAPELLGGPSVFLFPPKPKDTLMISRTPEVTCVVVDVSHEDPEVKFNWYVDGVEVHNAKTKPREEEYNSTYRVVSVLTVLHQDWLNGKEYKCKVSNKALPAPIEKTISKAKGQPREPQVYTLPPSREEMTKNQVSLTCDVSGFYPSDIAVEWESDGQPENNYKTTPPVLDSDGSFFLYSKLTVDKSRWEQGDVFSCSVMHEALHNHYTQKSLSLSPGK
chain 2: not shown
chain 3: DIVMTQSPSSLSASVGDRVTITCRASQSINSWLSWYQQKPGKPPKLLIYGASNLASGVPSRFKGSGSGTDFTLTISSLQPEDFATYYCQNNYGIIAAGATFGGGTKVEIKRTVAAPSVFIFPPSDEQLKSGTASVVCLLNNFYPREAKVQWKVDNALQSGNSQESVTEQDSKDSTYSLSSTLTLSKADYEKHKVYACEVTHQGLSSPVTKSFNRGEC
B5: XENP40372 (1D2B4, 1+1 VHVL) (antibody)
chain 1: EVQLLESGGGLVQPGGSLRLSCAVSGFSLSSYGVIWVRQAPGKGLEYVSWVSSGGSTNYASSVKGRFTISRDTSKNTVYLQMNSLRAEDTAVYFCARGATNSGTDIWGPGTLVTVSSASTKGPSVFPLAPSSKSTSGGTAALGCLVKDYFPEPVTVSWNSGALTSGVHTFPAVLQSSGLYSLSSVVTVPSSSLGTQTYICNVNHKPSDTKVDKKVEPKSCDKTHTCPPCPAPELLGGPSVFLFPPKPKDTLMISRTPEVTCVVVDVSHEDPEVKFNWYVDGVEVHNAKTKPREEEYNSTYRVVSVLTVLHQDWLNGKEYKCKVSNKALPAPIEKTISKAKGQPREPQVYTLPPSREEMTKNQVSLTCDVSGFYPSDIAVEWESDGQPENNYKTTPPVLDSDGSFFLYSKLTVDKSRWEQGDVFSCSVMHEALHNHYTQKSLSLSPGK
chain 2: not shown
chain 3: DIVMTQSPSSLSASVGDRVTITCRASQSINSWLSWYQQKPGKPPKLLIYGASNLASGVPSRFKGSGSGTDFTLTISSLQPEDFATYYCQNNYGIIAAGATFGGGTKVEIKRTVAAPSVFIFPPSDEQLKSGTASVVCLLNNFYPREAKVQWKVDNALQSGNSQESVTEQDSKDSTYSLSSTLTLSKADYEKHKVYACEVTHQGLSSPVTKSFNRGEC
B6: XENP40457 (LB_1002, 1+1 VHVL) (antibody)
chain 1: EVQLLESGGGLVQPGGSLRLSCAVSGFSLSSYGVIWVRQAPGKGLEYVSWVSSGGSTNYASSVKGRFTISRDTSKNTVYLQMNSLRAEDTAVYFCARGATNSGTDIWGPGTLVTVSSASTKGPSVFPLAPSSKSTSGGTAALGCLVKDYFPEPVTVSWNSGALTSGVHTFPAVLQSSGLYSLSSVVTVPSSSLGTQTYICNVNHKPSDTKVDKKVEPKSCDKTHTCPPCPAPELLGGPSVFLFPPKPKDTLMISRTPEVTCVVVDVSHEDPEVKFNWYVDGVEVHNAKTKPREEEYNSTYRVVSVLTVLHQDWLNGKEYKCKVSNKALPAPIEKTISKAKGQPREPQVYTLPPSREEMTKNQVSLTCDVSGFYPSDIAVEWESDGQPENNYKTTPPVLDSDGSFFLYSKLTVDKSRWEQGDVFSCSVMHEALHNHYTQKSLSLSPGK
chain 2: not shown
chain 3: DIVMTQSPSSLSASVGDRVTITCRASQSINSWLSWYQQKPGKPPKLLIYGASNLASGVPSRFKGSGSGTDFTLTISSLQPEDFATYYCQNNYGIIAAGATFGGGTKVEIKRTVAAPSVFIFPPSDEQLKSGTASVVCLLNNFYPREAKVQWKVDNALQSGNSQESVTEQDSKDSTYSLSSTLTLSKADYEKHKVYACEVTHQGLSSPVTKSFNRGEC
B7: XENP40555 (1D2B4, mAb-scFv VHVL) (antibody)
chain 1: EVQLLESGGGLVQPGGSLRLSCAVSGFSLSSYGVIWVRQAPGKGLEYVSWVSSGGSTNYASSVKGRFTISRDTSKNTVYLQMNSLRAEDTAVYFCARGATNSGTDIWGPGTLVTVSSASTKGPSVFPLAPSSKSTSGGTAALGCLVKDYFPEPVTVSWNSGALTSGVHTFPAVLQSSGLYSLSSVVTVPSSSLGTQTYICNVNHKPSDTKVDKKVEPKSCDKTHTCPPCPAPELLGGPSVFLFPPKPKDTLMISRTPEVTCVVVDVSHEDPEVKFNWYVDGVEVHNAKTKPREEEYNSTYRVVSVLTVLHQDWLNGKEYKCKVSNKALPAPIEKTISKAKGQPREPQVYTLPPSREEMTKNQVSLTCDVSGFYPSDIAVEWESDGQPENNYKTTPPVLDSDGSFFLYSKLTVDKSRWEQGDVFSCSVMHEALHNHYTQKSLSLSPGK
chain 2: not shown
chain 3: DIVMTQSPSSLSASVGDRVTITCRASQSINSWLSWYQQKPGKPPKLLIYGASNLASGVPSRFKGSGSGTDFTLTISSLQPEDFATYYCQNNYGIIAAGATFGGGTKVEIKRTVAAPSVFIFPPSDEQLKSGTASVVCLLNNFYPREAKVQWKVDNALQSGNSQESVTEQDSKDSTYSLSSTLTLSKADYEKHKVYACEVTHQGLSSPVTKSFNRGEC
B8: XENP40381 (LB_1001, 1+1 VHVL) (antibody)
chain 1: EVQLLESGGGLVQPGGSLRLSCAVSGFSLSSYGVIWVRQAPGKGLEYVSWVSSGGSTNYASSVKGRFTISRDTSKNTVYLQMNSLRAEDTAVYFCARGATNSGTDIWGPGTLVTVSSASTKGPSVFPLAPSSKSTSGGTAALGCLVKDYFPEPVTVSWNSGALTSGVHTFPAVLQSSGLYSLSSVVTVPSSSLGTQTYICNVNHKPSDTKVDKKVEPKSCDKTHTCPPCPAPELLGGPSVFLFPPKPKDTLMISRTPEVTCVVVDVSHEDPEVKFNWYVDGVEVHNAKTKPREEEYNSTYRVVSVLTVLHQDWLNGKEYKCKVSNKALPAPIEKTISKAKGQPREPQVYTLPPSREEMTKNQVSLTCDVSGFYPSDIAVEWESDGQPENNYKTTPPVLDSDGSFFLYSKLTVDKSRWEQGDVFSCSVMHEALHNHYTQKSLSLSPGK
chain 2: not shown
chain 3: DIVMTQSPSSLSASVGDRVTITCRASQSINSWLSWYQQKPGKPPKLLIYGASNLASGVPSRFKGSGSGTDFTLTISSLQPEDFATYYCQNNYGIIAAGATFGGGTKVEIKRTVAAPSVFIFPPSDEQLKSGTASVVCLLNNFYPREAKVQWKVDNALQSGNSQESVTEQDSKDSTYSLSSTLTLSKADYEKHKVYACEVTHQGLSSPVTKSFNRGEC

In this experiment the target is T1, XENP23311 (His-tagged NKG2D-Fc). Nature of the experiment: Octet. On the technique in general: In BLI a coated tip is dipped into the sample, and binding shifts an interference pattern.
Broadly, the Kd is the equilibrium constant for the complex coming apart. Take B1: the Kd came out at 97.3 nM.
With B2 the figure was 278 nM; with B3, 59.8 nM; with B4, 18.4 nM.
The value for B5 was 35.7 nM; that for B6 was 458 nM; that for B7 was 83.8 nM.
The value for B8 was 84.5 nM.
